Experimental findings from US12551573B2, “Compositions and methods for the targeting of PCSK9” (Scribe Therapeutics Inc., priority 2022, dated 2026) are described below.

The chains are these.
B1: DOMAIN_26749: repressor domain derived from the king cobra, Ophiophagus hannah; SEQ ID NO: 135 (protein)
chain: STPVTFEDVVVYFTAAEWVHLTNWQRDFYQAVMMETYELVASVAGDGVPMAEDEEGGVERPVWQYIPRGKRRRKTPQPRAD
modifications: Ophiophagus hannah
B2: DOMAIN_15863 (protein)
chain: CWGLLSFKDISMEFTWEEWQLLDSAQKYLYRDVILENYSHLVSLGYHGTKPDLIFKLEQGEEPWMINARVSRQSYPEGWKE
modifications: Vulpes vulpes
B3: DOMAIN_15839 (protein, listed as Callithrix jacchus)
chain: AQESMTFRDVAVFFSQDEWLHLDSAQRALYREVMLENYSTLVSLGIPFSMPKVIHQLQQGQDPCTVEGDVPSNTCLGFKTW
B4: DOMAIN_16115 (protein, listed as Bos taurus)
chain: VQGSVSFEDVAVGFSQEEWQILGPSQKALYWDVMLENYCNLVSVGYQAPTPNSLFQLEQGGPPWTVEGAALSSTCSGYQAT
B5: DOMAIN_16611 (protein, listed as Papio anubis)
chain: MAFEDVAVYFSQEEWGLLDTAQRALYRHVMLENFTLVTSLGLSTSRPYVVIQLERGEEPWVPSGKDMTLARNTYRRLNAGS
B6: DOMAIN_16738 (protein)
chain: B5 chain with A21T, Y48H, K65T, M67T, A70S, N72T, L77R, A79P
modifications: Pan troglodytes
B7: DOMAIN_16534 (protein, listed as Acinonyx jubatus)
chain: SHGPLSFEDVAVAFTKEEWQQLDPAQRTLYRDVMLENFSHVISLGHPVSKPDVISKLEQGEEPWIIKRDVSDWIYPERETR
B8: DOMAIN_16246 (protein, listed as Macaca mulatta)
chain: ASVTVTFDDVALYFSEQEWEILEKWQKQMYKQEMKTNYQTLDSLGYAFSKPDLITWMEQGRMLFISEQGCLDKTRRTTSPP
B9: DOMAIN_16694 (protein, listed as Callorhinus ursinus)
chain: SYGSFSFEDVTVGFTQEEWQHLGPAQRILYRDVMLENYSHLVSVGCCIPKPEVILKLEQGEQPWILEEESPSQSYPGLPTD
B10: DOMAIN_16461 (protein)
chain: AQESVTFEDVAVNFTDREWQCLTYAQRHLYKDVMLENYGNMVSVGFPFPKPPLISHLERGVELCVQDPQDRESLSCSCLVS
modifications: Cebus imitator
B11: DOMAIN_16556 (protein, listed as Rhinopithecus roxellana)
chain: B10 chain with D16N, C21S, D32H, G39R, V44L, L63P, R71K, C78Y, L79P
B12: DOMAIN_16811 (protein, listed as Balaenoptera acutorostrata)
chain: PQASVSFKDVTVEFTQEEWWQMDSAQRTLYRDVMLENYSHLVSVGYCFTKPELIFMLEQGEDPWLLEKEFVNRSSPEESQP
B13: DOMAIN_16566 (protein, listed as Odocoileus virginianus)
chain: HQESLTFKDVAVNFTQEEWHHVDAAQRRLYKDVMLENYSHLVSLGYQVSKPEVIFKLEQGEEPWIAEGEIQRPVCPDWKTR
B14: DOMAIN_16050 (protein)
chain: PLESVTFEDVAVDFTQEEWSLLDKSQKNLFRNVMLETVTHLVSVGYQISKSDVIFQLEQGKELWPEAAGGLQGQSPDEVTP
modifications: Ovis aries
B15: DOMAIN_29304: one of the nine most effective repressor domains (protein, listed as Peromyscus maniculatus)
chain: VTYNDVHVDITQEEWALMDPSQRNLYKDVMVETYMNLTAIGYNWENLEVEEPCQNPLKHGRHERPHTGEKPYEYNQCGKAFAQP
B16: dCasX491: catalytically-dead CasX variant, SEQ ID NO: 4 (protein)
chain: QEIKRINKIRRRLVKDSNTKKAGKTGPMKTLLVRVMTPDLRERLENLRKKPENIPQPISNTSRANLNKLLTDYTEMKKAILHVYWEEFQKDPVGLMSRVAQPASKKIDQNKLKPEMDEKGNLTTAGFACSQCGQPLFVYKLEQVSEKGKAYTNYFGRCNVAEHEKLILLAQLKPEKDSDEAVTYSLGKFGQRALDFYSIHVTKESTHPVKPLAQIAGNRYASGPVGKALSDACMGTIASFLSKYQDIIIEHQKVVKGNQKRLESLRELAGKENLEYPSVTLPPQPHTKEGVDAYNEVIARVRMWVNLNLWQKLKLSRDDAKPLLRLKGFPSFPLVERQANEVDWWDMVCNVKKLINEKKEDGKVFWQNLAGYKRQEALRPYLSSEEDRKKGKKFARYQLGDLLLHLEKKHGEDWGKVYDEAWERIDKKVEGLSKHIKLEEERRSEDAQSKAALTDWLRAKASFVIEGLKEADKDEFCRCELKLQKWYGDLRGKPFAIEAENSILDISGFSKQYNCAFIWQKDGVKKLNLYLIINYFKGGKLRFKKIKPEAFEANRFYTVINKKSGEIVPMEVNFNFDDPNLIILPLAFGKRQGREFIWNDLLSLETGSLKLANGRVIEKTLYNRRTRQDEPALFVALTFERREVLDSSNIKPMNLIGVARGENIPAVIALTDPEGCPLSRFKDSLGNPTHILRIGESYKEKQRTIQAKKEVEQRRAGGYSRKYASKAKNLADDMVRNTARDLLYYAVTQDAMLIFANLSRGFGRQGKRTFMAERQYTRMEDWLTAKLAYEGLSKTYLSKTLAQYTSKTCSNCGFTITSADYDRVLEKLKKTATGWMTTINGKELKVEGQITYYNRYKRQNVVKDLSVELDRLSEESVNNDISSWTKGRSGEALSLLKKRFSHRPVQEKFVCLNCGFETHAAEQAALNIARSWLFLRSQEYKKYQTNKTTGNTDKRAFVETWQSFYRKKLKEVWKPAV

Where a chain is given by its changes, count along the chain named.

The test system of one assay is HBEGF locus.
Test: not given
Type of assay: cell-based, human. Particulars: HEK293T; dCasX491 fusion, scaffold 174 spacer 34.28; 2 ng/ml diphtheria toxin for 48 hours.
B1: the “log 2 (fold change) of abundance before and after selection” value is “highest log 2 (fold change)”.

Staying with this assay, now noted: high-throughput screen of dXR repression of the HBEGF gene; abundance of each domain in the library before and after diphtheria toxin selection; HEK293T cells.
Consider B2, for which the “Log2 (fold change)” value worked out at 2.7434.

As for B3, the “Log2 (fold change)” value was found to be 2.3399.

B4: the “Log2 (fold change)” value came to 2.9023. As to B5, the “Log2 (fold change)” value is given as 3.4786. On to B6, for which the “Log2 (fold change)” value was found to be 3.5957.

Turning to B7, the “Log2 (fold change)” value is recorded as 2.7531. As for B8, the “Log2 (fold change)” value is recorded as 2.3971.

Take B9: the “Log2 (fold change)” value is 2.0979. In the case of B10, the “Log2 (fold change)” value came out at 3.1155. For the molecule B11, the “Log2 (fold change)” value was 2.4217.

For B12, the “Log2 (fold change)” value is reported as 3.5141.

Regarding B13, the “Log2 (fold change)” value came out at 3.3903. Same read-out and setting: with B14 the figure was 2.7105.

Still in this assay, the particulars now being: high-throughput screen of dXR repression of the HBEGF gene; change in abundance of each domain in the library before and after diphtheria toxin selection.
Consider B15, for which the “Log2 (fold change)” value came out at 4.0496.

Regarding B1, the “Log2 (fold change)” value was 5.4323.

A further assay concerns B2M locus. Briefly: B2M repression (HLA-negative cells by flow cytometry) in HEK293T cells transfected with LTRP plasmids. Type of assay: cell-based, human. As to conditions: HEK293T, 50 days post-transfection, spacer 7.37 (B2M). The procedure: Each construct was tested in triplicate.
Each construct was tested in triplicate. […] Cells were harvested for repression analysis at day 5, day 12, day 21, and day 51 post-transfection.
Each construct was tested in triplicate. […] Cells were harvested for repression analysis at day 8, day 13, day 20, and day 27 post-transfection. […] In addition, cells were also harvested on day 5 post-transfection for gDNA extraction for bisulfite sequencing to assess off-target methylation at the non-targeted VEGFA locus, which was performed using similar methods as described in Example 13.
HEK293T cells were transfected as described in Example 14, except that the cells were transfected with 50 ng each of a plasmid encoding the LTRP construct and a plasmid encoding the gRNA. […] 72 of the 95 top repressor domains were assessed together in one experiment where B2M expression was measured at 7, 14, 19, and 26 days after transfection, and the data shown in Tables 57-60.
A general note: In flow cytometry, cells or beads pass a laser one at a time.
With B16, the “% HLA-negative cells (mean)” value is given as 0.49%.

The same assay, now with this note: HEK293T, 73 days post-transfection, spacer 7.37 (B2M).
For the molecule B16, the “% HLA-negative cells (mean)” value is on record as 0.83%.

Still in this assay, the particulars now being: HEK293T; LTRP5 without ADD, scaffold 316 spacer 7.165; days 6/7 to 26/27; vs LTRP5-ZIM3.
For the molecule B15, the “B2M repression by LTRP5 constructs with enhanced repressor domains” value was “most effective repressor domains”. Take B1: the “B2M repression by LTRP5 constructs with enhanced repressor domains” value was “most effective repressor domains”.
